Where “and” joins values, the source holds several entries; their conditions need not be identical. Equal values may be shown once. Marks after values point to notes of the source that are not given here.
Test system: acute myocardial injury caused by viral (Coxsackie B3) infection in mice
Test: Survival of mice infected with Coxsackie B3 virus
Type: in vivo, BALB/C mice
Conditions: for relative survival rate: mice
Method: 0.2 ml of 100×TCID50 CVB3 provided by Zhong Shan Hospital affiliated to Fudan University was injected intra-abdominally and established myocarditis model. Within the following week, the mouse manifested pilo-erection, depilation, emaciation, dullness and death, about half of the tested animals died at the 8th day.
Intravenous injection of the testing drug into the tail vein was carried out the same day of intra-abdominal viral infection in mice, the injection was performed for consecutive 5 days, animal survival rate was monitored, after completion of the experiment, echocardiograph, myocardial pathologic examination, serum troponin determination were carried out.
The death status of model animals in various testing drug group was monitored.
• Normal mice control group, model group and testing drug group were set up; • Normal mice control group (n=10); • Model group (n=20): Prepared buffer solution was injected; • Testing drug group (n=20): […] courses with 20 animals assigned for each group; • Placebo control group (n=20): Intra-abdominal injection of non-CVB3 freeze-thaw cellular supernatant, 0.2 ml/animal. 10.2 Dosage Set Up, Preparation of Testing Drug, Route of Drug Administration, Times of Drug Administration, Concentration and Volume of the Testing Drug • rhNRG-1β was diluted with preparation buffer solution (10 mM PB, 0.2% human serum albumin, 5% mannitol to needed concentration; • Three drug administration groups were set up, intravenous injection for consecutive 3-day, 5-day and 7-day, drug volume for each dose was 0.2 ml/animal; • Drug administration of the model group was intravenous injection into the tail vein of mice, once every day (qd), for consecutive 7 days, drug volume for each dose was 0.2 ml/animal. 7.3 Method of the Experiment 7.3.1 Set Up of Acute Viral Myocariditis Animal Model in Mice

B1: rhNRG-1 β: Recombinant human neuregulin fragment of 61 amino acid (SEQ ID NO:4), 3 disulfide bonds, expressed in E. coli (protein, listed as Homo sapiens)
chain: SHLVKCAEKEKTFCVNGGECFMVKDLSNPSRYLCKCPNEFTGDRCQNYVMASFYKAEELYQ
modifications: disulfide (positions not given here)
80% and 90%: relative survival rate (30 μg/kg iv qd × 5, killed, Example 5 (II))
100%: relative survival rate (5 μg/kg (so in the source) iv qd × 5, 1st day, (I)) | relative survival rate (5 μg/kg (so in the source) iv qd × 5, 2nd day, (I)) | relative survival rate (5 μg/kg (so in the source) iv qd × 5, 3rd day, (I)) | relative survival rate (7.5 μg/kg iv qd × 5, 1st day, (II)) | relative survival rate (7.5 μg/kg iv qd × 5, 2nd day, (II)) | relative survival rate (7.5 μg/kg iv qd × 5, 3rd day, (II)) | relative survival rate (15 μg/kg iv qd × 5, 1st day, (I)) | relative survival rate (15 μg/kg iv qd × 5, 1st day, (II)) | relative survival rate (15 μg/kg iv qd × 5, 2nd day, (I)) | relative survival rate (15 μg/kg iv qd × 5, 2nd day, (II)) | relative survival rate (15 μg/kg iv qd × 5, 3rd day, (I)) | relative survival rate (15 μg/kg iv qd × 5, 3rd day, (II)) | relative survival rate (15 μg/kg iv qd × 5, 4th day, (I)) | relative survival rate (30 μg/kg iv qd × 3, 1st day, (I)) | relative survival rate (30 μg/kg iv qd × 3, 1st day, (II)) | relative survival rate (30 μg/kg iv qd × 3, 2nd day, (I)) | relative survival rate (30 μg/kg iv qd × 3, 2nd day, (II)) | relative survival rate (30 μg/kg iv qd × 3, 3rd day, (I)) | relative survival rate (30 μg/kg iv qd × 3, 3rd day, (II)) | relative survival rate (30 μg/kg iv qd × 3, 4th day, (II)) | relative survival rate (30 μg/kg iv qd × 5, 1st day, (I)) | relative survival rate (30 μg/kg iv qd × 5, 1st day, (II)) | relative survival rate (30 μg/kg iv qd × 5, 1st day, Example 5 (I)) | relative survival rate (30 μg/kg iv qd × 5, 1st day, Example 5 (II)) | relative survival rate (30 μg/kg iv qd × 5, 2nd day, (I)) | relative survival rate (30 μg/kg iv qd × 5, 2nd day, (II)) | relative survival rate (30 μg/kg iv qd × 5, 2nd day, Example 5 (I)) | relative survival rate (30 μg/kg iv qd × 5, 2nd day, Example 5 (II)) | relative survival rate (30 μg/kg iv qd × 5, 3rd day, (I)) | relative survival rate (30 μg/kg iv qd × 5, 3rd day, (II)) | relative survival rate (30 μg/kg iv qd × 5, 3rd day, Example 5 (I)) | relative survival rate (30 μg/kg iv qd × 5, 3rd day, Example 5 (II)) | relative survival rate (30 μg/kg iv qd × 5, 4th day, (I)) | relative survival rate (30 μg/kg iv qd × 5, 4th day, (II)) | relative survival rate (30 μg/kg iv qd × 5, 4th day, Example 5 (I)) | relative survival rate (30 μg/kg iv qd × 5, 4th day, Example 5 (II)) | relative survival rate (30 μg/kg iv qd × 5, 5th day, (I)) | relative survival rate (30 μg/kg iv qd × 7, 1st day, (I)) | relative survival rate (30 μg/kg iv qd × 7, 1st day, (II)) | relative survival rate (30 μg/kg iv qd × 7, 2nd day, (I)) | relative survival rate (30 μg/kg iv qd × 7, 2nd day, (II)) | relative survival rate (30 μg/kg iv qd × 7, 3rd day, (I)) | relative survival rate (30 μg/kg iv qd × 7, 4th day, (I)) | relative survival rate (30 μg/kg iv qd × 7, 5th day, (I))
17*: Number of survival animal (mice n = 20, 30 μg/kg iv qd × 7, killed, (I))
75%: relative survival rate (5 μg/kg (so in the source) iv qd × 5, 6th day, (I)) | relative survival rate (30 μg/kg iv qd × 3, 7th day, (II)) | relative survival rate (30 μg/kg iv qd × 3, killed, (II))
85%: relative survival rate (7.5 μg/kg iv qd × 5, 5th day, (II)) | relative survival rate (15 μg/kg iv qd × 5, 6th day, (I)) | relative survival rate (30 μg/kg iv qd × 5, 7th day, (I)) | relative survival rate (30 μg/kg iv qd × 5, 7th day, (II)) | relative survival rate (30 μg/kg iv qd × 5, killed, (II)) | relative survival rate (30 μg/kg iv qd × 5, killed, Example 5 (I)) | relative survival rate (30 μg/kg iv qd × 7, killed, (I))
65%: relative survival rate (5 μg/kg (so in the source) iv qd × 5, 7th day, (I)) | relative survival rate (15 μg/kg iv qd × 5, 7th day, (II)) | relative survival rate (15 μg/kg iv qd × 5, killed, (I)) | relative survival rate (15 μg/kg iv qd × 5, killed, (II)) | relative survival rate (30 μg/kg iv qd × 3, killed, (I))
50%: relative survival rate (5 μg/kg (so in the source) iv qd × 5, killed, (I)) | relative survival rate (7.5 μg/kg iv qd × 5, killed, (II))
95%: relative survival rate (5 μg/kg (so in the source) iv qd × 5, 4th day, (I)) | relative survival rate (15 μg/kg iv qd × 5, 4th day, (II)) | relative survival rate (15 μg/kg iv qd × 5, 5th day, (I)) | relative survival rate (30 μg/kg iv qd × 3, 4th day, (I)) | relative survival rate (30 μg/kg iv qd × 3, 5th day, (II)) | relative survival rate (30 μg/kg iv qd × 5, 5th day, (II)) | relative survival rate (30 μg/kg iv qd × 5, 5th day, Example 5 (I)) | relative survival rate (30 μg/kg iv qd × 5, 5th day, Example 5 (II)) | relative survival rate (30 μg/kg iv qd × 5, 6th day, Example 5 (I)) | relative survival rate (30 μg/kg iv qd × 5, 6th day, Example 5 (II))
70%: relative survival rate (7.5 μg/kg iv qd × 5, 6th day, (II)) | relative survival rate (15 μg/kg iv qd × 5, 7th day, (I)) | relative survival rate (30 μg/kg iv qd × 3, 7th day, (I))
90%: relative survival rate (5 μg/kg (so in the source) iv qd × 5, 5th day, (I)) | relative survival rate (7.5 μg/kg iv qd × 5, 4th day, (II)) | relative survival rate (15 μg/kg iv qd × 5, 5th day, (II)) | relative survival rate (30 μg/kg iv qd × 3, 5th day, (I)) | relative survival rate (30 μg/kg iv qd × 5, 6th day, (I)) | relative survival rate (30 μg/kg iv qd × 5, 6th day, (II)) | relative survival rate (30 μg/kg iv qd × 5, 7th day, Example 5 (I)) | relative survival rate (30 μg/kg iv qd × 5, 7th day, Example 5 (II)) | relative survival rate (30 μg/kg iv qd × 7, 6th day, (I)) | relative survival rate (30 μg/kg iv qd × 7, 7th day, (I))
18*: Number of survival animals (mice n = 20, 30 μg/kg iv qd × 7, killed, (II))
80%: relative survival rate (15 μg/kg iv qd × 5, 6th day, (II)) | relative survival rate (30 μg/kg iv qd × 3, 6th day, (I)) | relative survival rate (30 μg/kg iv qd × 3, 6th day, (II)) | relative survival rate (30 μg/kg iv qd × 5, killed, (I)) | relative survival rate (30 μg/kg iv qd × 7, killed, (II))
18: Number of survival animals (mice n = 20, 30 μg/kg iv qd × 7, 7th day, (II))
55%: relative survival rate (7.5 μg/kg iv qd × 5, 7th day, (II))

— patent US9555076B2, “Neuregulin based methods and compositions for treating cardiovascular diseases” (Zensun (Shanghai) Science & Technology, Co., Ltd., priority 2002, dated 2017)
